From patent US6045793, “Recombinant ribonuclease proteins” (dated 2000)

B1: E6FB[Met-(-1)Ser]rOnc (scFv)
chain: DIKMTQSPSSMYASLGERVTFTCKASQDINNYLCWFQQKPGKSPKTLIYRANRLVDGVPSRFSGSGSGQDYSLTISSLEYEDMGIYYCLQYDEFPYTFGGGTKLEIKGGGGSGGGGSGGGGSEVQLQQSGTVLARPGASVKMSCKASGYTFSSYWMHWIKQRPGQGLDWIVAIDPRNSDTIYNPQFKHKAKLTAVTSTSTAYMELNSLTNEDSAVYYCTPLYYFDSWGQGTTLTVSSAKKLNDAQAPKSDMSDWLTFQKKHITNTRDVDCDNIMSTNLFHCKDKNTFIYSRPEPVKAICKGIIASKNVLTTSEFYLSDCNVTSRPCKYKLKKSTNKFCVTCENQAPVHFVGVGSC
B2: [Met-(-1)Glu]rOncFBE6 (scFv)
chain: MEDWLTFQKKHITNTRDVDCDNIMSTNLFHCKDKNTFIYSRPEPVKAICKGIIASKNVLTTSEFYLSDCNVTSRPCKYKLKKSTNKFCVTCENQAPVHFVGVGSCAKKLNDAQAPKSDDIKMTQSPSSMYASLGERVTFTCKASQDINNYLCWFQQKPGKSPKTLIYRANRLVDGVPSRFSGSGSGQDYSLTISSLEYEDMGIYYCLQYDEFPYTFGGGTKLEIKGGGGSGGGGSGGGGSEVQLQQSGTVLARPGASVKMSCKASGYTFSSYWMHWIKQRPGQGLDWIVAIDPRNSDTIYNPQFKHKAKLTAVTSTSTAYMELNSLTNEDSAVYYCTPLYYFDSWGQGTTLTVSSHHH
B3: Placental ribonuclease inhibitor (other)
chain: SLDIQSLDIQCEELSDARWAELLPLLQQCQVVRLDDCGLTEARCKDISSALRVNPALAELNLRSNELGDVGVHCVLQGLQTPSCKIQKLSLQNCCLTGAGCGVLSSTLRTLPTLQELHLSDNLLGDAGLQLLCEGLLDPQCRLEKLQLEYCSLSAASCEPLASVLRAKPDFKELTVSNNDINEAGVRVLCQGLKDSPCQLEALKLESCGVTSDNCRDLCGIVASKASLRELALGSNKLGDVGMAELCPGLLHPSSRLRTLWIWECGITAKGCGDLCRVLRAKESLKELSLAGNELGDEGARLLCETLLEPGCQLESLWVKSCSFTAACCSHFSSVLAQNRFLLELQISNNRLEDAGVRELCQGLGQPGSVLRVLWLADCDVSDSSCSSLAATLLANHSLRELDLSNNCLGDAGILQLVESVRQPGCLLEQLVLYDIYWSEEMEDRLQALEKDKPSLRVIS

Legend:
Assay in all cases: cell-based or functional assay
[1] = target: transferrin receptor on SF539 human glioma cells (human, UniProt P02786)
Native ONCONASE = target: T1, Native ONCONASE (Rana pipiens, pyroglutamyl amino acid residue (<Glu-1) at the amino terminus)
T1 chain: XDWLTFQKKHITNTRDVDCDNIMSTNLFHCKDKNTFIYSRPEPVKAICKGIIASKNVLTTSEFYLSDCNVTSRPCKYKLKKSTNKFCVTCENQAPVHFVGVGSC

[2] = target: T2, recombinant human eosinophil-derived neurotoxin (human)
T2 chain: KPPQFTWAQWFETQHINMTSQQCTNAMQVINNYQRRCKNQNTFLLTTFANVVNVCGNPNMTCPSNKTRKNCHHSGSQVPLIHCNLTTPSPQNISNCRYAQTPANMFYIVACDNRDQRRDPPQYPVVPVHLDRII

[Met-(-1)]rOnc = target: T3, [Met-(-1)]rOnc (Rana pipiens)
T3 chain: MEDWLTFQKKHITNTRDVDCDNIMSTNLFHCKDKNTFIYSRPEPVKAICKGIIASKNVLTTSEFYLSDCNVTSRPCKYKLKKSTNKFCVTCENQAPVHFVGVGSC

rEDN(1-21) rOnc = target: T4, rEDN(1-21) rOnc (human; Rana pipiens)
T4 chain: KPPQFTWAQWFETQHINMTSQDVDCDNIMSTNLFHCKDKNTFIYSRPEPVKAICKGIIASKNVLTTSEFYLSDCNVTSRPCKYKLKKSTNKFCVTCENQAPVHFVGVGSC

rEDN(1-21) rOncG26 = target: T5, rEDN(1-21) rOncG26 (human EDN part, Rana pipiens Onc part)
T5 chain: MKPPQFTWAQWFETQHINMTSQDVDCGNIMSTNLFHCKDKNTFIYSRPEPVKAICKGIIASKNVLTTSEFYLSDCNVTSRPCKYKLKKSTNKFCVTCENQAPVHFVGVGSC

Row | Binder | IC50 (nM), inhibition of protein synthesis in SF539 human glioma cells [1] [nM] | Fold Difference of IC50 (ng/ml) in rabbit reticulocyte lysate, (+)PRI against (-)PRI (Native ONCONASE) [fold] | IC50 (ng/ml) of the RNase for inhibition of protein synthesis in rabbit reticulocyte lysate, (+)PRI (Native ONCONASE) [ng/mL] | Fold Difference of IC50 (ng/ml) in rabbit reticulocyte lysate, (+)PRI against (-)PRI [2] [fold] | Fold Difference of IC50 (ng/ml) in rabbit reticulocyte lysate, (+)PRI against (-)PRI ([Met-(-1)]rOnc) [fold] | IC50 (ng/ml) of the RNase for inhibition of protein synthesis in rabbit reticulocyte lysate, (+)PRI ([Met-(-1)]rOnc) [ng/mL] | Fold Difference of IC50 (ng/ml) in rabbit reticulocyte lysate, (+)PRI against (-)PRI (rEDN(1-21) rOnc) [fold] | IC50 (ng/ml) of the RNase for inhibition of protein synthesis in rabbit reticulocyte lysate, (+)PRI (rEDN(1-21) rOnc) [ng/mL] | Fold Difference of IC50 (ng/ml) in rabbit reticulocyte lysate, (+)PRI against (-)PRI (rEDN(1-21) rOncG26) [fold] | IC50 (ng/ml) of the RNase for inhibition of protein synthesis in rabbit reticulocyte lysate, (+)PRI (rEDN(1-21) rOncG26) [ng/mL]
1 | B1 | 0.22 | – | – | – | – | – | – | – | – | –
2 | B2 | 0.5 | – | – | – | – | – | – | – | – | –
3 | B3 | – | 1.2 | 0.24 | > 30.7 | 1.4 | 140 | 2 | 3200 | 21 | 600
